In doi:10.1101/2021.03.19.436221:

Molecular target: ALX301 (human)
Assay: SPR

- Kd: 3.41 nM
B1: mouse CD47 (natural protein)
chain: QLLFSNVNSIEFTSCNETVVIPCIVRNVEAQSTEEMFVKWKLNKSYIFIYDGNKNSTTTDQNFTSAKISVSDLINGIASLKMDKRDAMVGNYTCEVTELSREGKTVIELKNRTVSWFSPNEKILIVIFPILAILLFWGKFGILTLKYKSSHTNKRIILLLVAGLVLTVIVVVGAILLIPGEKPVKNASGLGLIVISTGILILLQYNVFMTAFGMTSFTIAILITQVLGYVLALVGLCLCIMACEPVHGPLLISGLGIIALAELLGLVYMKFVASNQRTIQPPRNR
